# Target: HLA-A*02:01 (Homo sapiens, UniProt P04439, D140Y/D185E/D98H/E176V/E277Q/G131W/G231S/I119V/I121R/I166T/I218V/L300P/L318F/N151K/N90K/P208A/P217A/Q86G/Q94H/R138H/R169H/T345S)
# Test: MHC binding assay (UV-ligand exchange, beta2m ELISA)
# Details: binding to HLA-A*02:01, β2m ELISA
# Description: Candidate peptides for T cell based therapies according to the present invention were further tested for their MHC binding capacity (affinity). The individual peptide-MHC complexes were produced by UV-ligand exchange, where a UV-sensitive peptide is cleaved upon UV-irradiation, and exchanged with the peptide of interest as analyzed. Only peptide candidates that can effectively bind and stabilize the peptide-receptive MHC molecules prevent dissociation of the MHC complexes. To determine the yield of the exchange reaction, an ELISA was performed based on the detection of the light chain (β2m) of stabilized MHC complexes. The assay was performed as generally described in Rodenko et al. (Rodenko et al., 2006).
# 96 well MAXISorp plates (NUNC) were coated over night with 2 ug/ml streptavidin in PBS at room temperature, washed 4× and blocked for 1 h at 37° C. in 2% BSA containing blocking buffer. Refolded HLA-A*02:01/MLA-001 monomers served as standards, covering the range of 15-500 ng/ml. Peptide-MHC monomers of the UV-exchange reaction were diluted 100 fold in blocking buffer. Samples were incubated for 1 h at 37° C., washed four times, incubated with 2 ug/ml HRP conjugated anti-82m for 1 h at 37° C., washed again and detected with TMB solution that is stopped with […]. Absorption was measured at 450 nm. Candidate peptides that show a high exchange yield (preferably higher than 50%, most preferred higher than 75%) are generally preferred for a generation and production of antibodies or fragments thereof, and/or T cell receptors or fragments thereof, as they show sufficient avidity to the MHC molecules and prevent dissociation of the MHC complexes.
row,Substance,"Peptide exchange (MHC class I binding score, peptide exchange yield)"
1,3 (RVIDDSLVVGV; listed as Homo sapiens) [compound 3],+++ (≥50 = +++)
2,5 (GLVDIMVHL; listed as Homo sapiens) [compound 5],+++ (≥50 = +++)
3,6 (FLNAIETAL; listed as Homo sapiens) [compound 6],++++ (≥75% = ++++)
4,7 (ALLQALMEL; listed as Homo sapiens) [compound 7],+++ (≥50 = +++)
5,10 (QLIEKNWLL; listed as Homo sapiens) [compound 10],+++ (≥50 = +++)
6,13 (RLHDENILL; listed as Homo sapiens) [compound 13],+++ (≥50 = +++)
7,16 (SLADLSLLL; listed as Homo sapiens) [compound 16],+++ (≥50 = +++)
8,20 (ALVEKGEFAL; listed as Homo sapiens) [compound 20],++ (≥20% = ++)
9,22 (LMYPYIYHV; listed as Homo sapiens) [compound 22],+++ (≥50 = +++)
10,24 (KVWSDVTPL; listed as Homo sapiens) [compound 24],+++ (≥50 = +++)
11,26 (VLDGKVAVV; listed as Homo sapiens) [compound 26],+++ (≥50 = +++)
12,28 (IKVTDPQLLEL; listed as Homo sapiens) [compound 28],++ (≥20% = ++)
13,31 (GLLETTGLLAT; listed as Homo sapiens) [compound 31],+++ (≥50 = +++)
14,38 (VLQQESNFL; listed as Homo sapiens) [compound 38],++ (≥20% = ++)
15,40 (KIWEELSVLEV; listed as Homo sapiens) [compound 40],+++ (≥50 = +++)
16,42 (KQMSISTGL; listed as Homo sapiens) [compound 42],++ (≥20% = ++)
17,44 (AVFNLVHVV; listed as Homo sapiens) [compound 44],+++ (≥50 = +++)
18,45 (FLPVSVVYV; listed as Homo sapiens) [compound 45],+++ (≥50 = +++)
19,51 (LDSEALLTL; listed as Homo sapiens) [compound 51],++ (≥20% = ++)
20,55 (HLFDKIIKI; listed as Homo sapiens) [compound 55],+++ (≥50 = +++)
21,58 (HLLGEGAFAQV; listed as Homo sapiens) [compound 58],+++ (≥50 = +++)
22,59 (ALADGIKSFLL; listed as Homo sapiens) [compound 59],+++ (≥50 = +++)
23,61 (ALYPKEITL; listed as Homo sapiens) [compound 61],+++ (≥50 = +++)
24,63 (KLLPMVIQL; listed as Homo sapiens) [compound 63],+++ (≥50 = +++)
25,70 (GLTEKTVLV; listed as Homo sapiens) [compound 70],++ (≥20% = ++)
26,71 (HMSGKLTNV; listed as Homo sapiens) [compound 71],++ (≥20% = ++)
27,79 (TVLEEIGNRV; listed as Homo sapiens) [compound 79],++ (≥20% = ++)
28,85 (KLLDKPEQFL; listed as Homo sapiens) [compound 85],++ (≥20% = ++)
29,86 (SLFSNIESV; listed as Homo sapiens) [compound 86],+++ (≥50 = +++)

# More lines, now with the values ahead:
row,"Peptide exchange (MHC class I binding score, peptide exchange yield)",Substance
1,++++ (≥75% = ++++),1 (KLQEKIQEL; listed as Homo sapiens) [compound 1]
2,+++ (≥50 = +++),11 (LLDPKTIFL; listed as Homo sapiens) [compound 11]
3,+++ (≥50 = +++),12 (RLLDPKTIFL; listed as Homo sapiens) [compound 12]
4,++ (≥20% = ++),19 (KVFELDLVTL; listed as Homo sapiens) [compound 19]
5,+++ (≥50 = +++),21 (YLMDDFSSL; listed as Homo sapiens) [compound 21]
6,+++ (≥50 = +++),23 (ALLSPLSLA; listed as Homo sapiens) [compound 23]
7,+++ (≥50 = +++),25 (LLWGHPRVALA; listed as Homo sapiens) [compound 25]
8,+++ (≥50 = +++),30 (IITEVITRL; listed as Homo sapiens) [compound 30]
9,++ (≥20% = ++),33 (TLDRNSLYV; listed as Homo sapiens) [compound 33]
10,+++ (≥50 = +++),36 (TVLQELINV; listed as Homo sapiens) [compound 36]
11,++ (≥20% = ++),37 (QIVELIEKI; listed as Homo sapiens) [compound 37]
12,+++ (≥50 = +++),41 (IVTEIISEI; listed as Homo sapiens) [compound 41]
13,+++ (≥50 = +++),47 (GLNGFNVLL; listed as Homo sapiens) [compound 47]
14,+++ (≥50 = +++),48 (KISDFGLATV; listed as Homo sapiens) [compound 48]
15,++ (≥20% = ++),49 (KLIGNIHGNEV; listed as Homo sapiens) [compound 49]
16,++ (≥20% = ++),52 (TIGIPFPNV; listed as Homo sapiens) [compound 52]
17,+ (≥10% = +),53 (AQHLSTLLL; listed as Homo sapiens) [compound 53]

row,"Peptide exchange (MHC class I binding score, peptide exchange yield)",Substance
1,+++ (≥50 = +++),54 (YLVPGLVAA; listed as Homo sapiens) [compound 54]
2,++ (≥20% = ++),57 (TLYPGRFDYV; listed as Homo sapiens) [compound 57]
3,+++ (≥50 = +++),60 (YLFSQGLQGL; listed as Homo sapiens) [compound 60]
4,+++ (≥50 = +++),62 (SLVENIHVL; listed as Homo sapiens) [compound 62]
5,++ (≥20% = ++),64 (SLYAGSNNQV; listed as Homo sapiens) [compound 64]
6,++ (≥20% = ++),65 (SLSEKSPEV; listed as Homo sapiens) [compound 65]
7,+++ (≥50 = +++),67 (FLIENLLAA; listed as Homo sapiens) [compound 67]
8,+++ (≥50 = +++),68 (QLMNLIRSV; listed as Homo sapiens) [compound 68]
9,++ (≥20% = ++),69 (LKVLKADVVL; listed as Homo sapiens) [compound 69]
10,++ (≥20% = ++),72 (VLSTRVTNV; listed as Homo sapiens) [compound 72]
11,++ (≥20% = ++),74 (GLAFLPASV; listed as Homo sapiens) [compound 74]
12,+++ (≥50 = +++),75 (ALLDGALQL; listed as Homo sapiens) [compound 75]
13,+++ (≥50 = +++),76 (FTAEFLEKV; listed as Homo sapiens) [compound 76]
14,+++ (≥50 = +++),80 (VLTGQVHEL; listed as Homo sapiens) [compound 80]
15,++ (≥20% = ++),81 (ILAEEPIYI; listed as Homo sapiens) [compound 81]
16,++ (≥20% = ++),83 (GLLENSPHL; listed as Homo sapiens) [compound 83]
17,++++ (≥75% = ++++),84 (FLLEREQLL; listed as Homo sapiens) [compound 84]
